Primed or numbered codes have the meaning given here. Where no end group is shown, it is not given here. Side-chain parts run from the residue outwards. membrane = cellular membrane (peptide-display support, peptide attached at its C-terminus via a stable linker); glass slide = glass slide (microarray support, peptide conjugated at its N-terminus via a PEG linker); stable linker = not defined here; PEG linker = not defined here; linker = not defined here; PEG = not defined here; PEG(6) = PEG(6) linker
Columns and labels:
[1] = target: T1, α5β1 human recombinant protein (human, UniProt P08648 42-995; P05556 21-728); experiment: overlapping peptides on membrane incubated with 5 µg/ml α5β1; bound receptor transferred and detected with anti-alpha5 antibody
T1 construct: Bought from R&D Systems; also called α5β1 receptor; integrin α5β1
T1 sequence (P08648 42-995 limits assumed, chain 1 of 2): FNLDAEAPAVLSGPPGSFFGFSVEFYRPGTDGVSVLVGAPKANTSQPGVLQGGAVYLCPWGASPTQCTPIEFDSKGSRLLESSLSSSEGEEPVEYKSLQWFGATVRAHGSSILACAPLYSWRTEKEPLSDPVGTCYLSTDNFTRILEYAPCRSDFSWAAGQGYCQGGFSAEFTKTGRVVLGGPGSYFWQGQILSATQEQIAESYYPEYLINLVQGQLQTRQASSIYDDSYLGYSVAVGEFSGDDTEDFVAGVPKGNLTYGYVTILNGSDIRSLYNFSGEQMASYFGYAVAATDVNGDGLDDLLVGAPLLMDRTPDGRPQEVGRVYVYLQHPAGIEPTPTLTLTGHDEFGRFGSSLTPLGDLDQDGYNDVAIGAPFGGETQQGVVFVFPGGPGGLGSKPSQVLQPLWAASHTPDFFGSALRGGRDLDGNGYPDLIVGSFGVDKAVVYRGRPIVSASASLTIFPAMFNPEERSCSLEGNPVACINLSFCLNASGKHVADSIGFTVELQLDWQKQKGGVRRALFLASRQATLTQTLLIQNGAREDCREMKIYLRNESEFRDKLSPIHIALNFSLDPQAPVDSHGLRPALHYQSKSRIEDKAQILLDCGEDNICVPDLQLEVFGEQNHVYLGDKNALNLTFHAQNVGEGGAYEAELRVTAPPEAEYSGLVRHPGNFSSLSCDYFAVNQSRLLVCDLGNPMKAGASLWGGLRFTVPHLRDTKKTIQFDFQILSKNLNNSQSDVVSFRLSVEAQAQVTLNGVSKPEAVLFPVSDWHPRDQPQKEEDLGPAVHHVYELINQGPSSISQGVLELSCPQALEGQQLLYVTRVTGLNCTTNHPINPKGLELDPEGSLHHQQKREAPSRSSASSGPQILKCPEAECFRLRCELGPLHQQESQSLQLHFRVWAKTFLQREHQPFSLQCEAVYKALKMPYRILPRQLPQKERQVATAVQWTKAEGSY
T1 sequence (P05556 21-728 limits assumed, chain 2 of 2): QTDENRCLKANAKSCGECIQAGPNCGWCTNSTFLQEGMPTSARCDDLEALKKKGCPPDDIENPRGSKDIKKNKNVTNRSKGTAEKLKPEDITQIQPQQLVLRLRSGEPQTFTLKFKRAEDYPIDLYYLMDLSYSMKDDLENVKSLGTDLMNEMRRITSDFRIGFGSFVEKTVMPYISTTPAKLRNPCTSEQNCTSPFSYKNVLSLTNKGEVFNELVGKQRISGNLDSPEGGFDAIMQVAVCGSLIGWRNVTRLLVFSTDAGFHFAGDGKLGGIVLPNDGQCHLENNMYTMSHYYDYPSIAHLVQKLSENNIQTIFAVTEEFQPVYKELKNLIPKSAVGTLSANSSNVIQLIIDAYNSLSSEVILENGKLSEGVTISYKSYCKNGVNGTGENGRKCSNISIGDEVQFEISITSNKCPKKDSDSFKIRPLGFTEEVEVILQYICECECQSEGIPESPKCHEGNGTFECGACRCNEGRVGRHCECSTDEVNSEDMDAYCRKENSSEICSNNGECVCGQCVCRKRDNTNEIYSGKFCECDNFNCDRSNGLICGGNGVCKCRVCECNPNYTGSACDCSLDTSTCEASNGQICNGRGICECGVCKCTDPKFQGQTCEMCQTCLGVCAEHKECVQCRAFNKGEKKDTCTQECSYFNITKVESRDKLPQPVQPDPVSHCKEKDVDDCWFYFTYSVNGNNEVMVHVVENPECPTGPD
Procedure: Peptides were attached to their c-terminal site using stable linker. […] The peptide-displaying […] membrane was soaked in methanol for 1 minute and rinsed in Tris-buffered saline (TBS) and washed three times. Then, the membrane was blocked with 3% BSA in 0.05% TWEEN®-20 containing TBS (TBST) for 3 hours at room temperature. Then, the membrane was washed for 10 minutes with TB ST and incubated with 5 μg/ml α5β1 human recombinant protein (R&D systems) in 3% BSA in TB ST for 1 hour at room temperature and then overnight at 4° C. Subsequently, the membrane was washed three times with TB ST. Thereafter, the bound receptor to the membrane was transferred to the PVDF membrane. To achieve this, first, the PVDF membrane was soaked in methanol for 1 minute and then blocked with 5% skimmed fat milk for 2 hours. Then, the membrane was incubated with primary anti-alpha5 integrin antibody (Sigma-Aldrich) for overnight in 5% skimmed milk. The membrane was washed three times with TBST and then incubated with anti-rabbit-HRP secondary antibody (Dako), washed and developed with chemiluminescence detection kit.
The domains 9 and 10 of FN were chosen to design peptides, as these domains were reported to be responsible for binding to the α5β1 receptor, as shown with the docking experiments (Nagae et al, 2012 J. Cell Biol. 131-140). The interaction studies were performed against human recombinant integrin α5β1 receptor and the bound proteins were transferred to another membrane and ITGA5 was detected with antibodies. Many sequences appeared to bind to the α5β1 receptor from human and mouse domains, the strongest binding was obtained with 2 sequences from human FN-III domain 10 as follows.

rhIntegrin α11β1 [2] = target: T2, rhIntegrin α11β1 (human, UniProt Q9UKX5 23-1141; P05556 21-728, limits assumed); experiment: competition: unlabeled AXI-I in 10-fold excess against AXI-I-FITC on coated α11β1 receptor, fluorescence intensity
T2 construct: Bought from R&D Systems; also called α11β1 receptor; ITGA11 receptor
T2 sequence (Q9UKX5 23-1141 limits assumed, chain 1 of 2): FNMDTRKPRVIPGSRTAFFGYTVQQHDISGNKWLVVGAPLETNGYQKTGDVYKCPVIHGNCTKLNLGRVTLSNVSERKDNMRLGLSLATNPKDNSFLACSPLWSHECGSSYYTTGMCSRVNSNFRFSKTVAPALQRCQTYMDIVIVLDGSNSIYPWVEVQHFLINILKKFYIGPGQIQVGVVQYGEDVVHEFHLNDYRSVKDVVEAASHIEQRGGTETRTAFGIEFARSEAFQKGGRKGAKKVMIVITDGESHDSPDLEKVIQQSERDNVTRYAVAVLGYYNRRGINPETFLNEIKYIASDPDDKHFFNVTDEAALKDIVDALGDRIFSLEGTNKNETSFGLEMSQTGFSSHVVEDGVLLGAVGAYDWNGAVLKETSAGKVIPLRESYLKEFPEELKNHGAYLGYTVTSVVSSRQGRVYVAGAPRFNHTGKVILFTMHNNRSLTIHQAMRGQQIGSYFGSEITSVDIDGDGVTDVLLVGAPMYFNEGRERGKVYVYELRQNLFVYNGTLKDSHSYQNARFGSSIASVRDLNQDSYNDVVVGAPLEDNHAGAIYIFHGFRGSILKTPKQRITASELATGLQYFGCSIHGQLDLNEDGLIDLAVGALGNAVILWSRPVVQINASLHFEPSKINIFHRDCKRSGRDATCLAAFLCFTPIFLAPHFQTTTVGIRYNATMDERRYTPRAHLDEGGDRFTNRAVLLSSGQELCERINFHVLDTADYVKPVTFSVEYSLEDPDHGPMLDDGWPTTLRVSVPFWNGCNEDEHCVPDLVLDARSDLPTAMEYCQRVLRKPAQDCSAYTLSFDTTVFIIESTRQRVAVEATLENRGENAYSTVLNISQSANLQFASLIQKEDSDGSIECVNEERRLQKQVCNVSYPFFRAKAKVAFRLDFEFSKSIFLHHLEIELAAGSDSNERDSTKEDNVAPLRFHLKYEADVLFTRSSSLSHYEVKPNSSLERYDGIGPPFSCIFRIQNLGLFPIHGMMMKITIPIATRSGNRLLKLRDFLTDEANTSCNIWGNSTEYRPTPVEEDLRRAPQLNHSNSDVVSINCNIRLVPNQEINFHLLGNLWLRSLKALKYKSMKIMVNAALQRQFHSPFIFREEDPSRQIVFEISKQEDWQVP
T2 sequence (P05556 21-728 limits assumed, chain 2 of 2): as the sequence (P05556 21-728 limits assumed, chain 2 of 2) above
Procedure: Purified ITGA11 receptor (α11β1; 100 μg/ml—stock; R&D systems) was diluted to 5 μg/ml with 1×PBS. 96-well ELISA White Maxisorb plate (Nunc) was coated with 50 μl of 5 μg/ml ITGA11 (or as control α5β1) receptor for overnight at 4° C. Then, wells were blocked for 3-4 hours with 200 μl of blocking buffer (1×PBS containing 5% BSA). Wells were washed three times with 200 μl of washing buffer (1×PBS containing 0.5% BSA and 0.05% TWEEN®-20). Peptides conjugated with FITC were diluted to different concentrations in washing buffer and then added to the plate and incubated at 37° C. for 1 hour. In addition, the binding of the peptide was blocked by co-incubation with 10× higher amount of unlabeled peptide. Subsequently, wells were washed three times with washing buffer. Then, 100 μl of 1×PBS was added and plates were read at 485 nm/520 nm with a fluorescence plate reader.

rhIntegrin α11β1 [3] = target: T2, rhIntegrin α11β1; experiment: peptide microarray: peptide fixed by its N-terminus through a PEG linker, incubated with α11β1 receptor (10 µg/ml), anti-ITGA11 antibody and fluorescent secondary antibody, signal of the antibodies alone subtracted
Procedure: (§1) Peptide microarray was prepared by conjugating peptides at their N-terminal to a glass slide using a PEG linker. […] For the binding studies, the peptide array was blocked with 3% BSA in TBST for 2 hours. Then the array slide was washed 5 times in TB ST and subsequently incubated with the target receptor (α11β1, 10 μg/ml dissolved in PBS) for 1 hour at 37° C. The slides were washed with TBST and then incubated with primary antibody (1 μg/ml) against ITGA11 for 1 hour at 37° C. Then slides were washed and incubated with fluorescent dye labeled secondary antibodies for 30 minutes. The slides were washed with TBST and water and then dried and scanned with a microarray scanner to detect binding of the peptides. The enlightened spots were analyzed using ImageJ software. To determine the unspecific binding, a peptide array was incubated with only primary and secondary antibodies without the receptor incubation step. Then, the signal of unspecific binding was subtracted from the total binding to calculate specific binding.

[4] = target: T1, α5β1 human recombinant protein; experiment: competition: unlabelled AV3 in excess against nAV2-FITC on coated α5β1 receptor, fluorescence intensity (counts)
Procedure: (§2) The purified human recombinant α5β1 or α11β1 receptors (5 μg/ml in PBS) were coated onto 96-well ELISA plates (White Maxisorb-Nunc) by incubating overnight at 4° C. Then, the wells were blocked with blocking buffer (5% (w/v) BSA, 150 mM Nacl, 25 mM Tris) for 2 hours at room temperature. Then, the wells were washed three times with 200 μl of washing buffer (150 mM Nacl, 25 mM Tris-base, 0.005% TWEEN® 20, 0.5% BSA). Thereafter, the peptides conjugated with PEG(6)-FITC were diluted to different concentrations in washing buffer. For the competitive studies, the wells were co-incubated with 10-fold higher amount of unlabeled peptides. The plates were incubated at 37° C. for 60 minutes. Then, the wells were washed three times with washing buffer and subsequently, the plates were read for the fluorescein signal Ex/Em 485 nm/520 nm using a fluorescent plate reader (Perkin Elmer).
(§3) Blocking of the peptide with 10-fold excess of unlabeled peptide blocked the binding of nAV2-PEG(6)-fluorescein. In addition, a new short peptide (RYYRITY (SEQ ID NO:8), called AV3) was also designed because seq. 3 and seq. 4 (see the sequences above) had “YYRITY” (SEQ ID NO:10) as common amino acids and the N-terminal of the seq. 4 was crucial for the binding to the receptor. […] Therefore, AV3 was selected to move with further studies.

[5] = target: T1, α5β1 human recombinant protein; experiment: peptide microarray incubated with α5β1, anti-α5 detection
Procedure: as §1, with “(α5β1,” for “(α11β1,”, “ITGA5” for “ITGA11”
To find out the amino acids responsible for the peptide binding and the most efficient binding peptides, peptide microarrays were developed with alanine replacement and shorter peptides. In addition, a peptide having the sequence […] (SEQ ID NO:11) (AV3-Cys) was developed. For AV3 (RYYRITY (SEQ ID NO:8)), the peptide microarray was incubated with […] receptor, which was captured by anti-α5 and then fluorescent dye labeled secondary antibody. […] Replacement of T6 induced unspecific binding of the peptide to the incubating antibodies (FIG. 13).

rhIntegrin α11β1 [6] = target: T2, rhIntegrin α11β1; experiment: phage ELISA on coated rhIntegrin α11β1, HRP-anti-M13 antibody, read at 490 nm; control coatings rhIntegrin α4β1 (Bar 2) and no coating (Bar 3); one phage dose, no concentration given
Procedure: For each clone, 20 mL of LB medium was inoculated with ER2738 and incubated at 37° C. until slightly turbid. Single plaque of phages were inoculated to each culture and then incubated at 37° C. with vigorous aeration for 4.5 hours. The cultures were transferred to a fresh centrifuge tube and centrifuged for 10 minutes at 10,000 rpm. The upper 80% of the supernatant was transferred to a fresh tube and precipitated with PEG/NaCl twice. Then the pellet was suspended in 250 μL TBS. The 96-well ELISA plate was coated with 100 μL of 1 μg/mL target in coating buffer and incubated at 4° C. overnight. Then, the plate was washed once with the washing buffer (0.1% TWEEN® in TBS). All wells were blocked with 250 μL of blocking buffer at 4° C. for 1-2 hours. Then, the plate was washed 6 times with the washing buffer and slapping on a paper towel to remove excess buffer. Thereafter, 100 μL of phage virions was added per well. In competitive phage ELISA, competitive antigen was mixed with phages in washing buffer and added to the wells and incubated at room temperature for 1-2 hours with agitation. The plate was washed 6 times with washing buffer. HRP-conjugated anti-M13 antibody (GE healthcare, 1:5000 in blocking buffer) was added to each well and incubated at room temperature for 1 hour with agitation. […] The plates were read using a microplate reader at 490 nm.

[7] = target: T1, α5β1 human recombinant protein; experiment: FITC-labelled peptide on coated α5β1 receptor in a 96-well plate, fluorescence intensity (counts)
Procedure: as §2, §3

## TNLLVRYSPVKN-{stable linker-membrane} (reading uncertain)
[1]
  binding result: binds

## SIELTNLLVRYS-{stable linker-membrane} (reading uncertain)
[1]
  binding result: binds

B1: AXI-I peptide SGLTEWLRWFNS (peptide)
peptide: SGLTEWLRWFNS
notes: Unlabelled peptide; On the peptide microarray it is linked by its N-terminus to a glass slide through a PEG linker; also called unlabeled AXI-I
rhIntegrin α11β1 [2]
  binding result: binds

B2: RWFNS (peptide)
peptide: {glass slide-PEG}-RWFNS
modifications: reading uncertain
notes: chain-length variant of AXI-I (positions 8-12); fixed on the array by its N-terminus through a PEG linker
rhIntegrin α11β1 [3]
  binding result: binds

B3: SGLTEWLR (peptide)
peptide: {glass slide-PEG linker}-SGLTEWLR
modifications: reading uncertain
notes: chain-length variant of AXI-I (positions 1-8); fixed on the array by its N-terminus through a PEG linker
rhIntegrin α11β1 [3]
  binding result: no binding

## TTVRYYRITYGE-{stable linker-membrane} (reading uncertain)
[1]
  binding result: binds

B4: AV3 peptide RYYRITY (peptide)
peptide: RYYRITY
notes: Unlabelled; On the peptide microarray it is linked by its N-terminus to a glass slide through a PEG linker
[4]
  binding result: binds

B5: RYYAITY (peptide)
peptide: {glass slide-PEG}-RYYAITY
modifications: reading uncertain
notes: also called AV3 with R4 replaced by alanine
[5]
  binding result: binds

B6: RYYRATY (peptide)
peptide: {glass slide-PEG}-RYYRATY
modifications: reading uncertain
notes: also called AV3 with I5 replaced by alanine
[5]
  binding result: binds

B7: RAYRITY (peptide)
peptide: {glass slide-PEG}-RAYRITY
modifications: reading uncertain
notes: also called AV3 with Y2 replaced by alanine
[5]
  binding result: binds

## {glass slide-PEG}-RYARITY (reading uncertain) [AV3 with Y3 replaced by alanine]
[5]
  binding result: no binding

B8: AYYRITY (peptide)
peptide: {glass slide-PEG}-AYYRITY
modifications: reading uncertain
notes: also called AV3 with R1 replaced by alanine
[5]
  binding result: binds

B9: RYYRITA (peptide)
peptide: {glass slide-PEG}-RYYRITA
modifications: reading uncertain
notes: also called AV3 with Y7 replaced by alanine
[5]
  binding result: binds

## GDSPASSKPISI-{linker-membrane} (reading uncertain)
[1]
  binding result: binds

B10: SGLTE (peptide)
peptide: {glass slide-PEG}-SGLTE
modifications: reading uncertain
notes: chain-length variant of AXI-I (positions 1-5); fixed on the array by its N-terminus through a PEG linker
rhIntegrin α11β1 [3]
  binding result: no binding

B11: SGLTEW (peptide)
peptide: {glass slide-PEG linker}-SGLTEW
modifications: reading uncertain
notes: chain-length variant of AXI-I (positions 1-6); fixed on the array by its N-terminus through a PEG linker
rhIntegrin α11β1 [3]
  binding result: no binding

B12: Phage clones 11, 13, 14, 16, 19, 20, 21, 22, 24, 25, 28, 29, 30, 31 and 38 displaying AXI-I (peptide)
chain: SGLTEWLRWFNS
notes: Whole phage virions in the phage ELISA; not shown: phage coat protein of the Ph.D.12 library
rhIntegrin α11β1 [6]
  binding result: binds

B13: FITC-labeled nAV2: YYRITYGETGGN-K-PEG(6)-Fluorescein (peptide)
peptide: YYRITYGETGGNK([PEG(6)-fluorescein])
notes: also called nAV2-FITC; nAV2-PEG(6)-fluorescein
[7]
  binding result: binds

B14: Phage clone 27 displaying AXI-II (peptide)
chain: SFATWTPNFERN
notes: as for B12
rhIntegrin α11β1 [6]
  binding result: binds
